Reverse-splicing fitness data for 15 variants are collected here from the RNAGym collection of RNA variant scans (doi:10.1093/molbev/msab373).

The chains are these.
B1: Azoarcus group I ribozyme (parent)
chain: GUGCCUUGCGCCGGGAAACCACGCAAGGGAUGGUGUCAAAUUCGGCGAAACCUAAGCGCCCGCCCGGGCGUAUGGCAACGCCGAGCCAAGCUUCGGCGCCUGCGCCGAUGAAGGUGUAGAGACUAGACGGCACCCACCUAAGGCAAACGCUAUGGUGAAGGCAUAGUCCAGGGAGUGGCGAAAGUCACACAAACCGG

In this series the parent is B1. Kind of series: reverse-splicing fitness (ratio to wild type); higher = more active; in vitro selection; Mg2+ level not given. The gist of the method: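 An in vitro group I ribozyme library with randomized positions was T7-transcribed and gel-purified. In triplicate, 10 pmol RNA in EPPS pH 7.5 was reacted with 50 pmoles of a 30-nt RNA substrate for 1 h at 37 °C across several added MgCl2 levels (1–48 mM), then stopped with EDTA. Products were reverse transcribed from a substrate-complementary primer, PCR-amplified and sequenced (HiSeq 4000). Fitness is a variant's read proportion after selection over that before, normalised to wild type.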
Regarding GUGCCUUGCGCCGGGAAACCACGCAAGGGAUGGUGUCAAAUUCGGCGAAACCUAAGCGCCCGCCCGGGCGUAUGGCAACGCAGAGCCAAGCUUCGGCGCCUGCGCCGAUGAAGGUGUAGUGACUAGACGGCACCCACCUAAGGCUAACGUUAUGGUGAAGGCAUAGUCAAGGGAGGGGCGAAAGUCACACAAACCGG [C82A A120U A145U C150U C169A U176G], the reverse-splicing fitness is 0.00171.
In the case of GUGCCUUGCGCCGGGAAACCACGCAAGGGAUGGUGUCAAAUUCGGCGAAACCUAAGCGCCCGCCCGGGCGUAUGGCAACGCAGAGCCAAGCUUCGGCGCCUGCGCCGAUGAAGGUGUAGUGACUAGACGGCACCCACCUAAGGCUAACGUUAUGGUGAAGGCAUAGUCAAGGGAGAGGCGAAAGUCACACAAACCGG [C82A A120U A145U C150U C169A U176A] it was 0.00275; in that of GUGCCUUGCGCCGGGAAACCACGCAAGGGAUGGUGUCAAAUUCGGCGAAACCUAAGCGCCCGCCCGGGCGUAUGGCAACGCAGAGCCAAGCUUCGGCGCCUGCGCCGAUGAAGGUGUAGUGACUAGACGGCACCCACCUAAGGCUAACGUUAUGGUGAAGGCAUAGUCAAGGGAGCGGCGAAAGUCACACAAACCGG [C82A A120U A145U C150U C169A U176C], 0.00272.
With GUGCCUUGCGCCGGGAAACCACGCAAGGGAUGGUGUCAAAUUCGGCGAAACCUAAGCGCCCGCCCGGGCGUAUGGCAACGCAGAGCCAAGCUUCGGCGCCUGCGCCGAUGAAGGUGUAGUGACUAGACGGCACCCACCUAAGGCUAACGUUAUGGUGAAGGCAUAGUCUAGGGAGAGGCGAAAGUCACACAAACCGG [C82A A120U A145U C150U C169U U176A], the reverse-splicing fitness turned out to be 0.00274.
GUGCCUUGCGCCGGGAAACCACGCAAGGGAUGGUGUCAAAUUCGGCGAAACCUAAGCGCCCGCCCGGGCGUAUGGCAACGCAGAGCCAAGCUUCGGCGCCUGCGCCGAUGAAGGUGUAGUGACUAGACGGCACCCACCUAAGGCUAACGUUAUGGUGAAGGCAUAGUCUAGGGAGGGGCGAAAGUCACACAAACCGG [C82A A120U A145U C150U C169U U176G]: the reverse-splicing fitness was found to be 0.00221.
As for GUGCCUUGCGCCGGGAAACCACGCAAGGGAUGGUGUCAAAUUCGGCGAAACCUAAGCGCCCGCCCGGGCGUAUGGCAACGCAGAGCCAAGCUUCGGCGCCUGCGCCGAUGAAGGUGUAGUGACUAGACGGCACCCACCUAAGGCUAACGUUAUGGUGAAGGCAUAGUCUAGGGAGCGGCGAAAGUCACACAAACCGG [C82A A120U A145U C150U C169U U176C], the reverse-splicing fitness turned out to be 0.00354.
For GUGCCUUGCGCCGGGAAACCACGCAAGGGAUGGUGUCAAAUUCGGCGAAACCUAAGCGCCCGCCCGGGCGUAUGGCAACGCAGAGCCAAGCUUCGGCGCCUGCGCCGAUGAAGGUGUAGUGACUAGACGGCACCCACCUAAGGCUAACGUUAUGGUGAAGGCAUAGUCCAGGGAGUGGCGAAAGUCACACAAACCGG [C82A A120U A145U C150U], the reverse-splicing fitness is 0.0889.
Then GUGCCUUGCGCCGGGAAACCACGCAAGGGAUGGUGUCAAAUUCGGCGAAACCUAAGCGCCCGCCCGGGCGUAUGGCAACGCAGAGCCAAGCUUCGGCGCCUGCGCCGAUGAAGGUGUAGUGACUAGACGGCACCCACCUAAGGCUAACGUUAUGGUGAAGGCAUAGUCCAGGGAGCGGCGAAAGUCACACAAACCGG [C82A A120U A145U C150U U176C], with 0.0364; and GUGCCUUGCGCCGGGAAACCACGCAAGGGAUGGUGUCAAAUUCGGCGAAACCUAAGCGCCCGCCCGGGCGUAUGGCAACGCAGAGCCAAGCUUCGGCGCCUGCGCCGAUGAAGGUGUAGUGACUAGACGGCACCCACCUAAGGCUAACGUUAUGGUGAAGGCAUAGUCCAGGGAGAGGCGAAAGUCACACAAACCGG [C82A A120U A145U C150U U176A], with 0.0232; and GUGCCUUGCGCCGGGAAACCACGCAAGGGAUGGUGUCAAAUUCGGCGAAACCUAAGCGCCCGCCCGGGCGUAUGGCAACGCAGAGCCAAGCUUCGGCGCCUGCGCCGAUGAAGGUGUAGUGACUAGACGGCACCCACCUAAGGCUAACGGUAUGGUGAAGGCAUAGUCAAGGGAGUGGCGAAAGUCACACAAACCGG [C82A A120U A145U C150G C169A], with 0.00305.
Take GUGCCUUGCGCCGGGAAACCACGCAAGGGAUGGUGUCAAAUUCGGCGAAACCUAAGCGCCCGCCCGGGCGUAUGGCAACGCAGAGCCAAGCUUCGGCGCCUGCGCCGAUGAAGGUGUAGUGACUAGACGGCACCCACCUAAGGCUAACGGUAUGGUGAAGGCAUAGUCGAGGGAGUGGCGAAAGUCACACAAACCGG [C82A A120U A145U C150G C169G]: the reverse-splicing fitness came out at 0.00265.
Then GUGCCUUGCGCCGGGAAACCACGCAAGGGAUGGUGUCAAAUUCGGCGAAACCUAAGCGCCCGCCCGGGCGUAUGGCAACGCAGAGCCAAGCUUCGGCGCCUGCGCCGAUGAAGGUGUAGUGACUAGACGGCACCCACCUAAGGCUAACGGUAUGGUGAAGGCAUAGUCUAGGGAGUGGCGAAAGUCACACAAACCGG [C82A A120U A145U C150G C169U], with 0.00321.
Then GUGCCUUGCGCCGGGAAACCACGCAAGGGAUGGUGUCAAAUUCGGCGAAACCUAAGCGCCCGCCCGGGCGUAUGGCAACGCAGAGCCAAGCUUCGGCGCCUGCGCCGAUGAAGGUGUAGUGACUAGACGGCACCCACCUAAGGCUAACGUUAUGGUGAAGGCAUAGUCGAGGGAGCGGCGAAAGUCACACAAACCGG [C82A A120U A145U C150U C169G U176C], with 0.00288; and GUGCCUUGCGCCGGGAAACCACGCAAGGGAUGGUGUCAAAUUCGGCGAAACCUAAGCGCCCGCCCGGGCGUAUGGCAACGCAGAGCCAAGCUUCGGCGCCUGCGCCGAUGAAGGUGUAGUGACUAGACGGCACCCACCUAAGGCUAACGUUAUGGUGAAGGCAUAGUCGAGGGAGGGGCGAAAGUCACACAAACCGG [C82A A120U A145U C150U C169G U176G], with 0.00197.
Then GUGCCUUGCGCCGGGAAACCACGCAAGGGAUGGUGUCAAAUUCGGCGAAACCUAAGCGCCCGCCCGGGCGUAUGGCAACGCAGAGCCAAGCUUCGGCGCCUGCGCCGAUGAAGGUGUAGUGACUAGACGGCACCCACCUAAGGCUAACGUUAUGGUGAAGGCAUAGUCGAGGGAGAGGCGAAAGUCACACAAACCGG [C82A A120U A145U C150U C169G U176A], with 0.00257.
